Reference: patent US12723100

Assays:
[1] = target: full-length human Nectin-4 on cells (human) (UniProt Q96NY8); assay: cell-based or functional assay
[2] = target: full-length human Nectin-4 on cells (human) (UniProt Q96NY8); assay: flow cytometry, CHO-Nectin-4 cells
[3] = target: human recombinant Nectin-4 protein (extracellular domain) (human) (UniProt Q96NY8); assay: ELISA, recombinant human Nectin-4 coated on plate
[4] = target: full-length human Nectin-4 on cells (human) (UniProt Q96NY8); assay: flow cytometry, SKBR3 cells (endogenous Nectin-4)
[5] = target: full-length human Nectin-4 on cells (human) (UniProt Q96NY8); assay: flow cytometry competition on CHO-Nectin-4 cells; competitor biotinylated human Nectin-1-His

EC50 [2]: 0.04 nM
EC50 [3]: 0.34 nM
EC50 [4]: 0.07 nM
EC50 [5]: 0.16 nM
B1: Positive Control 1 (PC1), in-house Nectin-4-specific antibody based on Enfortumab (AGS-22 M6) (antibody, INN chains, looked up, V domains shown)
VH: EVQLVESGGGLVQPGGSLRLSCAASGFTFSSYNMNWVRQAPGKGLEWVSYISSSSSTIYYADSVKGRFTISRDNAKNSLSLQMNSLRDEDTAVYYCARAYYYGMDVWGQGTTVTVSS
VL: DIQMTQSPSSVSASVGDRVTITCRASQGISGWLAWYQQKPGKAPKFLIYAASTLQSGVPSRFSGSGSGTDFTLTISSLQPEDFATYYCQQANSFPPTFGGGTKVEIKR
Endocytosis EC50 (cell killing with MMAF-conjugated Fab anti-hFc), Nectin-4-CHO cells [1]: 0.33 nM
Endocytosis EC50 (cell killing with MMAF-conjugated Fab anti-hFc), SKBR3 cells [1]: 0.39 nM
